Reference: patent US20260078195A1

How the values were obtained:
[1] = target: human BCMA antigen (Cat #:BCA-H522y, ACRO) (human) (UniProt Q02223); experiment: SPR (BIAcore 8K), antibody captured by anti-human Fc on CM5 chip, antigen as analyte
[2] = target: human CD3D&E protein (Cat #: CT038-H2508H, Sino biological) (human) (UniProt P04234); experiment: as above
[3] = target: human CD3 complex on Jurkat cells (human) (UniProt P07766); experiment: FACS on Jurkat cells, PE goat anti-human IgG (H+L) secondary antibody, MFI
Chain of human CD3 complex on Jurkat cells (human) (P07766 23-207, chain 1 of 4): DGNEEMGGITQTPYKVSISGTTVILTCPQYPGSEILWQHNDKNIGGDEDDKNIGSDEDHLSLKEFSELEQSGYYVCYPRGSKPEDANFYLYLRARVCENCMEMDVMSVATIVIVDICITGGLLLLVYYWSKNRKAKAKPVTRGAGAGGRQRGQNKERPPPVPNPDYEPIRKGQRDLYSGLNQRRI
Chain of human CD3 complex on Jurkat cells (human) (P04234 22-171, chain 2 of 4, further chain): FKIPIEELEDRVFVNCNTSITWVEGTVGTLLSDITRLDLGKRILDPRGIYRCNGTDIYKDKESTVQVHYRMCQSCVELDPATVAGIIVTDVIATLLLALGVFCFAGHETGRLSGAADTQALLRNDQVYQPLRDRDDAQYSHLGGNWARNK
Chain of human CD3 complex on Jurkat cells (human) (P09693 23-182, chain 3 of 4, further chain): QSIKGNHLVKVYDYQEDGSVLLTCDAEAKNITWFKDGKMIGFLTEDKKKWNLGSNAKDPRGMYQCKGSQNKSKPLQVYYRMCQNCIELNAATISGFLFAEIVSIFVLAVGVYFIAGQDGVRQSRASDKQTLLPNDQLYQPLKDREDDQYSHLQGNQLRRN
Chain of human CD3 complex on Jurkat cells (human) (P20963 22-164, chain 4 of 4, further chain): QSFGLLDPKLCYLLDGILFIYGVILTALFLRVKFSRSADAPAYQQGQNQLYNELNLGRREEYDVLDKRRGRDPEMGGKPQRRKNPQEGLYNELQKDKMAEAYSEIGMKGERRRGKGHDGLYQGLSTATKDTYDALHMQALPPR

[4] = target: human BCMA expressed on HEK293A cells (human) (UniProt Q02223); experiment: FACS on HEK293A/human BCMA cells, PE goat anti-human IgG (H+L) secondary antibody, MFI
Chain of human BCMA expressed on HEK293A cells (human) (Q02223 whole entry): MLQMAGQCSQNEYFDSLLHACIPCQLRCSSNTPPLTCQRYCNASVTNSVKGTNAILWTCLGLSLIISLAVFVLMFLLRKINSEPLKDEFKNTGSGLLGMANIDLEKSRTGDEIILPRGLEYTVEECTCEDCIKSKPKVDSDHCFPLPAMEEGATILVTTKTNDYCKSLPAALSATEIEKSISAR

[5] = target: mouse BCMA expressed on HEK293A cells (mouse) (UniProt O88472); experiment: FACS on HEK293A/mouse BCMA cells, PE goat anti-human IgG (H+L) secondary antibody, MFI
Chain of mouse BCMA expressed on HEK293A cells (mouse) (O88472 whole entry): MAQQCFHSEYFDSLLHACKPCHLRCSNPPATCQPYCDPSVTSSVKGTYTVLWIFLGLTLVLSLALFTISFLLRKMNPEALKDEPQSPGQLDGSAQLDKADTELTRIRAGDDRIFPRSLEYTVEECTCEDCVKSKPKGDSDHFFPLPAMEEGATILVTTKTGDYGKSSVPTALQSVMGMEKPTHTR

[6] = target: monkey BCMA expressed on HEK293A cells (monkey); experiment: FACS on HEK293A/monkey BCMA cells, PE goat anti-human IgG (H+L) secondary antibody, MFI
Chain of monkey BCMA expressed on HEK293A cells (monkey) (Q02223 other isoform, or with tags, fused parts or gaps): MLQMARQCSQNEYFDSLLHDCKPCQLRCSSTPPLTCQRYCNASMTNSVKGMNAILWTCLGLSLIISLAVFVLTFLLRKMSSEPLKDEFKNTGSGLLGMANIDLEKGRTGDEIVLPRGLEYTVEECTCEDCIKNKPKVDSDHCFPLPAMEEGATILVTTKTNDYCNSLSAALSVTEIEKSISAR

[7] = target: human GPRC5D antigen (Cat #:HM05P, Kactus Biosystems) (human) (UniProt Q9NZD1); experiment: SPR (BIAcore 8K), antibody captured by anti-human Fc on CM5 chip, antigen as analyte
Chain of human GPRC5D antigen (Cat #:HM05P, Kactus Biosystems) (human) (Q9NZD1 whole entry): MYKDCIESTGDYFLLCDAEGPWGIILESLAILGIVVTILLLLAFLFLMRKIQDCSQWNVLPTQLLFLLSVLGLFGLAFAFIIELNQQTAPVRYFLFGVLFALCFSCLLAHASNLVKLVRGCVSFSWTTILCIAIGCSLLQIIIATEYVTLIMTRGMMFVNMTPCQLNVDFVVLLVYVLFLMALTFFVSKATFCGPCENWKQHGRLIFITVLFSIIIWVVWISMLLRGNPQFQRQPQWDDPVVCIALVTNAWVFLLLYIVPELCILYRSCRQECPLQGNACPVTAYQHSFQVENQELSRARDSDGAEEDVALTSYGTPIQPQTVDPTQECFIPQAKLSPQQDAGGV

[8] = target: human GPRC5D expressed on HEK293T cells (human) (UniProt Q9NZD1); experiment: FACS on HEK293T/human GPRC5D cells, PE goat anti-human IgG (H+L) secondary antibody, MFI
Chain of human GPRC5D expressed on HEK293T cells (human) (Q9NZD1 whole entry): as above

Chain of human BCMA antigen (Cat #:BCA-H522y, ACRO) (human) (Q02223 1-54 limits assumed): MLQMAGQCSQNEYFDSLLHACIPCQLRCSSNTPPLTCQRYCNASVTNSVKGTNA
Chain of human CD3D&E protein (Cat #: CT038-H2508H, Sino biological) (human) (P04234 22-105, chain 1 of 2): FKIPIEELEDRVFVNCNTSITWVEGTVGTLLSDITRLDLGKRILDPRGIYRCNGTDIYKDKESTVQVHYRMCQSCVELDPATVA
Chain of human CD3D&E protein (Cat #: CT038-H2508H, Sino biological) (human) (P07766 23-126, chain 2 of 2, further chain): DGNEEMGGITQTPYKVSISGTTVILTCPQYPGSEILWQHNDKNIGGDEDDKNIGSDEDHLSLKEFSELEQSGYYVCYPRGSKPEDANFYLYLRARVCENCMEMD

Substance	Kd [1]	koff [1]	kon [1]	Kd [2]	koff [2]	kon [2]	EC50 (read off the curve) [3]	EC50 (read off the curve) [4]	EC50 (read off the curve) [5]	EC50 (read off the curve) [6]	Kd [7]	EC50 (read off the curve) [8]
EM801 (bi-specific BCMA×CD3 antibody) (bispecific antibody)	0.996 nM	0.00227 s⁻¹	2.28e+06 M⁻¹ s⁻¹	41 nM	0.00757 s⁻¹	185000 M⁻¹ s⁻¹	0.7 µg/mL	0.07 µg/mL	0.2 µg/mL	0.1 µg/mL		
JNJ-64407564 (bi-specific GPRC5D×CD3 antibody) (bispecific antibody)											4.21 nM	0.1 µg/mL
